Assay results published in PMC3228729, “Localization of ASV Integrase-DNA Contacts by Site-Directed Crosslinking and their Structural Analysis”.

T1: ASV integrase WT (avian sarcoma virus, UniProt P03354 1281-1567)
T1 sequence: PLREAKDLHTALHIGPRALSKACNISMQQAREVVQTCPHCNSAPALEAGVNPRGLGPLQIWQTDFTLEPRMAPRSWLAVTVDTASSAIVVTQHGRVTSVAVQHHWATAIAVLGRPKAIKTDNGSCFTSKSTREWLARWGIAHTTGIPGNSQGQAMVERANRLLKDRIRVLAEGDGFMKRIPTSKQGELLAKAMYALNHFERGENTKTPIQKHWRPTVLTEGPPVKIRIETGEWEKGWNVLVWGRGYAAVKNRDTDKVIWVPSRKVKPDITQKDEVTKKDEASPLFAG


Target: T1, ASV integrase WT
Experiment: photocrosslinking; DNA-borne diazirine; among highest efficiency; Photocrosslinking: 40 mM HEPES pH 6.5, 150 mM NaCl, 5% glycerol, 0 C, 10 uM IN, 0.05 uM DNA; disulfide: Buffer 1 adjusted to 250-300 mM NaCl, pH 7.5, on ice, +/-10 mM MgCl2
Settings: protein: recombinant; label: 32P; blunt

Row | Binder | binding result
1 | NH2-3.11 linear (dsDNA, 5-aminouridine replacing T at position 11 of strand 3 (paper numbering), carrying aryl diazirine) DNA 1: AATGTAGTCTTATGCAATACTC DNA 2: GAGTATTGCATAAGACTACATT | binds
2 | NH2-4.12 linear (dsDNA, 5-aminouridine at position 12 of strand 4 (paper numbering), carrying aryl diazirine) DNA 1: GAGTATTGCATAAGACTACATT DNA 2: AATGTAGTCTTATGCAATACTC | binds
